Assays:
[1] = target: T1, UAF (Rrn5-Rrn9-Rrn10-Uaf30-H3-H4) (Saccharomyces cerevisiae? (budding …, UniProt Q02983;P53437;P38204;Q08747;P61830;P02309 1-363;1-365;1-145;1-228;1-136;1-103)); assay: filter binding; two repeats; text assigns tight Kd to -110/-40, fig. S7 legend order of the DNAs appears swapped; 30 mM Hepes-NaOH pH 7.5, 30 mM sodium citrate pH 6.0, 250 mM KCl, 2 mM DTT; filter binding 1 h at 4 C; footprinting on ice, then 2.5 mM MgCl2, 0.5 mM CaCl2, DNa
[2] = target: T1, UAF (Rrn5-Rrn9-Rrn10-Uaf30-H3-H4); assay: filter binding; fitted Kd only in figure; legend order of the DNAs appears swapped; 30 mM Hepes-NaOH pH 7.5, 30 mM sodium citrate pH 6.0, 250 mM KCl, 2 mM DTT; filter binding 1 h at 4 C; footprinting on ice, then 2.5 mM MgCl2, 0.5 mM CaCl2, DNa

B1: DNA-110/-40 (downstream) (dsDNA)
DNA 1: AGAGCGACAGAGAGGGCAAAAGAAAATAAAAGTAAGATTTTAGTTTGTAATGGGAGGGGGGGTTTAGTCAT
DNA 2: ATGACTAAACCCCCCCTCCCATTACAAACTAAAATCTTACTTTTATTTTCTTTTGCCCTCTCTGTCGCTCT
Kd [1]: 20.4 nM

B2: DNA-180/-110 (upstream) (dsDNA)
DNA 1: ATATACGCTAAGATTTTTGGAGAATAGCTTAAATTGAAGTTTTTCTCGGCGAGAAATACGTAGTTAAGGCA
DNA 2: TGCCTTAACTACGTATTTCTCGCCGAGAAAAACTTCAATTTAAGCTATTCTCCAAAAATCTTAGCGTATAT
fold decrease in affinity [2]: ~5 fold lower affinity than DNA-110/-40
